Assay results from the DeepSol protein solubility set.

Assay: soluble on expression in E. coli; label from the status in PepcDB or PDB records

In the case of “MSLFRVGRKIARSIHKAITSEDSVDVSELDGVRSLHLGSDTIQSSMRIKDPYALELRYSRGMMVYLLFQKQPRDLVVLGLGGGSIPKYVYHHLPQVKTRVVEINPRIIEVARSHFFTPENDERFEIIEGDAAAFLRDNPATTSMLMMDAFGSNGLPPDLCSQDFFDSCFEALTLDGMCAINLWGSDKHYDVYLQRIETSFHGRILVMPTGRPGNVVVFGFKRAPNDLRWSTLRVRAKALEAEHKIEFLEFVERLREHNPSTSNRLLLESEGHHHHHH”, the “soluble on expression in E. coli” value is reported as “soluble”.
In the case of “MWYQKTLTLSAKSRGFHLVTDEILNQLADMPRVNIGLLHLLLQHTSASLTLNENCDPTVRHDMECFFLRTVPDNGNYEHDYEGADDMPSHIKSSMLGTSLVLPVHKGRIQTGTWQGIWLGEHRIHGGSRRIIATLQGELEHHHHHH”, the “soluble on expression in E. coli” value is reported as “not soluble”.
For “MTARVAGQAVGGQILVGEPVHDAVSDCADIRFGSYRLFSLDAAPGPDLD”, the “soluble on expression in E. coli” value was “not soluble”.
In the case of “MAPWKIEEVKTLKGLIKSKPVVAIVDMMDVPAPQLQEIRDKIRDKVKLRMSRNTLIIRALKEAAEELNNPKLAELANYVERGAAILVTDMNPFKLYKLLEENKSPAPVRGGQIAPCDIKVEKGSTGMPPGPFLGELKSVGIPAAIEKGKIAIKEDKVVVKKGEVVSPKLAAVLDRLGIKPIKVGLNILAVYEDGIIYTPDVLKVDEEKLLADI”, the “soluble on expression in E. coli” value is reported as “soluble”.
For “MAHHHHHHMGTLEAQTQGPGSMLNKVMLIGYLGDDPESKTMTSGAEVVNFRMATFESYMNKNTHQKVEKTEWHSVVVFNPHFAKIALQYLHKGSKVYIEGKLQTRKWQDKNGHDRYTTEIVLPQYKGELHLLDAKKEQSASSSSVTSQSYAIASGADDYGISAHDSMPF”, the “soluble on expression in E. coli” value was “soluble”.
In the case of “MKAERILGALYGQALGDAMGMPSELWPRTRVKAHFGWIDRFLPGPKENNAACYFNRAEFTDDTAMALCLADALLECEGNIDPEIIGRNILAWAERFDAFNKNVLGPTSKIALNAIRDGKPIAALENNGVTNGAAMRVSPLGCLLPPTNLTAFIAEVALASSPTHKSDLAVAGAVVVAWAVSRAVNGDTWQSIADSLPAVAHQAQTARITTFSASLSARLELALNIVRHADGVESASEQLYQIIGAGTSTIESVPCAIAMVELANTDPNRCAVLCANLGGDTDTIGAMATAICGALHGVSAINPQLKQTLDEVNQLDFARYAVALASYRQRREAL”, the “soluble on expression in E. coli” value is reported as “not soluble”.
For “SSSLHKSRIADFQDVLKEPSIALEKLRELSFSGIPCEGGLRCLCWKILLNYLPLERASWTSILAKQRELYAQFLREMIIQPGIAKANMGVSREDVTFEDHPLNPNPDSRWNTYFKDNEVLLQIDKDVRRLCPDISFFQRATDYPCLLILDPQNEFETLRKRVEQTTLKSQTVARNRSGVTNMSSPHKNSAPSSLNEYEVLPNGCEAHWEVVERILFIYAKLNPGIAYVQGMNEIVGPLYYTFATDPNSEWKEHAEADTFFCFTNLMAEIRDNFIKSLDDSQCGITYKMEKVYSTLKDKDVELYLKLQEQNIKPQFFAFRWLTLLLSQEFLLPDVIRIWDSLFADDNRFDFLLLVCCAMLMLIREQLLEGDFTVNMRLLQDYPITDVCQILQKAKELQDSK”, the “soluble on expression in E. coli” value was “soluble”.
With “MGSDKIHHHHHHMKTKVAAIYGKRDVRLRVFELPEITDNELLVSVISDSVCLSTWKAALLGSEHKRVPDDLENHPVITGHECAGVIVEVGKNLTGKYKKGQRFVLQPAMGLPSGYSAGYSYEYFGGNATYMIIPEIAINLGCVLPYHGSYFAAASLAEPMCCIIGAYHANYHTTQYVYEHRMGVKPGGNIALLACAGPMGIGAIDYAINGGIQPSRVVVVDIDDKRLAQVQKLLPVELAASKGIELVYVNTKGMSDPVQMLRALTGDAGFDDIFVYAAVPAVVEMADELLAEDGCLNFFAGPTDKNFKVPFNFYNVHYNSTHVVGTSGGSTDDMKEAIALSATGQLQPSFMVTHIGGLDAVPETVLNLPDIPGGKKLIYNGVTMPLTAIADFAEKGKTDPLFKELARLVEETHGIWNEQAEKYLLAQFGVDIGEAAQ” the “soluble on expression in E. coli” value was “not soluble”.
For “MSLADLLDTVKQRGALKIALEGTYPPFNFKDAKQQLTGFDVEIATEIARRMKVKPEFVTAEWSGLLAGLQSGKFDIVVNQVGVTAQRQAVFDFSQPYTYSSAQLIVRKNESRDFKNLADLKGKKLGVGQGSNYADMAKAAAGVQVKTYPGAPEYLQDLATGRLDAALNDSLLIPFAIKQAKLPLKAGAPVGEVAAMAIPFAKGNPQFKSEIDKALGGMKADGTFRKISVKWFGIDVSKAEGHHHHHH”, the “soluble on expression in E. coli” value was “soluble”.
In the case of “LTCYGDSGQPVDWFVVYKLPALRGSGEAAQRGLQYKYLDESSGGWRDGRALINSPEGAVGRSLQPLYRSNTSQLAFLLYNDQPPQPSKAQDSSMRGHTKGVLLLDHDGGFWLVHSVPNFPPPASSAAYSWPHSACTYGQTLLCVSFPFAQFSKMGKQLTYTYPWVYNYQLEGIFAQEFPDLENVVKGHHVSQEPWNSSITLTSQAGAVFQSFAKFSKFGDDLYSGWLAAALGTNLQVQFWHKTVGILPSNCSDIWQVLNVNQIAFPGPAGPSFNSTEDHSKWCVSPKGPWTCVGDMNRNQGEEQRGGGTLCAQLPALWKAFQPLVKNYQPCNGMARKPSRAYKI”, the “soluble on expression in E. coli” value is reported as “soluble”.
For “DVQKKTFTKWINARFSKSGKPPINDMFTDLKDGRKLLDLLEGLTGTSLPKERGSTRVHALNNVNRVLQVLHQNNVELVNIGGTDIVDGNHKLTLGLLWSIILHWQVKDVMKDVMSDLQQTNSEKILLSWVRQTTRPYSQVNVLNFTTSWTDGLAFNAVLHRHKPDLFSWDKVVKMSPIERLEHAFSKAQTYLGIEKLLDPEDVAVRLPDKKSIIMYLTSLFEVLPQ”, the “soluble on expression in E. coli” value was “soluble”.
With “MGRVFKKKGGAKREAEEEKQEELVMRKKLRKEEEPEPVEDVEEDEDVSDEDDEDIDDEEEDEDEQNIMDFDFEAYPPSEDDRDGIVNMLTQTFLRTDIDLKAMSEGIIAKAPHGVVLTQAYDDEETEEDYMAYGLCTTVPLNDNKDDAPKFIKDLFTYVLNRAKKGAPTEIYKKIEEIQVSGDGKSALFVNERLLNFPTIVVPQIFGSIREDLSGFETKYKTIIYIQKLRIVETDGSEAKVGASSNGSSGVAGKKKGKMGKAEKKRAAAAALANAEIEFDNPEDRVLFEIKEGKEIHFDYPVHMDVEPGSKFHSTEKDGKKWNPFRRLVIMDDKRFDAFLKKGSDGIII” the “soluble on expression in E. coli” value was “not soluble”.
In the case of “MSLSRKWLNKVKWDDHGLVPVIVQEQGSNDVLMFAFMNREALQKTVETGEAVFWSRSRKRLWHKGEESGHIQQVHEIRLDCDEDVVLLRVTQVGGIACHTGRHACFFQKFEGTAEDGDWHTVEPVLKNPDDIYAGKPGHNHEEGHHHHHH”, the “soluble on expression in E. coli” value is reported as “not soluble”.
For “MGSDKIHHHHHHMILMKSYYRLLGHYYLLLRFFKNLRDLGVSLLELENILGVIYWYLFKQKYSTRCRCCSELYINQTNINPYYFASACKLKKMGLPVEIRNSVFYYDGLEVYPTVIPYIARVIKYNWQVFNMKGNPMISFTVKNHDFKAVLLKGYEGLLQFYEQFILEQYGMFDYKDKTVIDIGGFIGDTALYFYSKEARKIVSFEPSKKNYTILIKNITLNNIKNVIPINAGVWDENTKGIITNPAPTAYRVKEESKGDVALVSILDIIDSYRPDIIKMDCEGCEYKVFEKLLETGYIYDVPEYVFEAHGNIKNELLSKLRSLDEFRLCVHSDLGNMAIVSLKKL”, the “soluble on expression in E. coli” value was “not soluble”.
For “STGKKPKHHVLSHDIIPASKPIAEKLQIQPESPVVELKRILYNDDQPLTFEVTHYPLDLFPGIDTFIADGVSMHDILKQQYKVVPTHNTKLLNVVYAQQEESKYLDCDIGDALFEIDKTAFTSNDQPIYCSLFLMHTNRVTFTINSPYT”, the “soluble on expression in E. coli” value was “soluble”.
With “MSFKVKNQSKHLYSLMTKFKRSQLILKHQSNNFASELWNEEDIIRSKQFIELIEDTLLHLKKDTVDFIYDIFIYGKKPCDISYSNSTYYKKLNKAANSFFDHFVWEAPIYKTKELKNDNSHS” the “soluble on expression in E. coli” value was “soluble”.
For “MASEHHEALNLYAVRVARGEGVKQDFARAASLFRRADRCGFNCEPVYDDMVNDFRDKAFGMELVSSKRAFLKALRPETAEARCTVGEAFIGQGDADSLRTGRELLTSAATLGSGKAMYLLGVLCRDGKGVAANAERAFMWFSLAASCGFAKAESERVNAEGKLDDAGRTRAMQLAARWRRQYLAPVCLEHHHHHH”, the “soluble on expression in E. coli” value was “not soluble”.
For “MKAKPSHQATSMSSSLRVSPSIHGYHFDTAARKKAVGNIFENIDQESLQRLFRNSGDKKAEERAKIIFAIDQDLEEKTRALMALKKRTKDKLLQFLKLRKYSIKVH”, the “soluble on expression in E. coli” value was “not soluble”.
With “DQGIVIYNAQHENLVKSWVDGFTKDTGIKVTLRNGGDSELGNQLVQEGSASPADVFLTENSPAMVLVDNAKLFAPLDAATLAQVEPQYRPSHGRWIGIAARSTVFVYNPAKLSDAQLPKSLLDLAKPEWKGRWAASPSGADFQAIVSALLELKGEKATLAWLKAMKTNFTAYKGNSTVMKAVNAGQVDSGVIYHYYPFVDGAKTGENSNNIKLYYFKHQDPGAFVSISGGGVLASSKHQQQAQAFIKWITGKQGQEILRTNNAFEYAVGVGAASNPKLVPLKDLDAPKVDAAQLNSKKVVELMTEAGLL” the “soluble on expression in E. coli” value was “soluble”.
In the case of “RLPFMAQYDRLGLTRSNTSCHNNTGKQCLWGDTEKQPELLVLGDSHADHYKTFFDAVGKKEKWSATMVSADACAYVEGYASRVFQNWAACRAVYRYAEEHLPRYSKVVLAMRWGSQMPENSRSLAYDAGFFQKFDRMLHKLSSEKQAVYLMADNLASSYNVQRAYILSSRIPGYRQALRPDDESTLKANARIRELAAKYPNVYIIDAAAYIPADFQIGGLPVYSDKDHINPYGGTELAKRFSEKQRFLDTRHNH”, the “soluble on expression in E. coli” value is reported as “not soluble”.
With “TLTIDDGNIEIVGTGVKGKLPTVWLQYGQVNLKASGGNGKYTWRSANPAIASVDASSGQVTLKEKGTTTISVISSDNQTATYTIATPNSLIVPNMSKRVTYNDAVNTCKNFGGKLPSSQNELENVFKAWGAANKYEYYKSSQTIISWVQQTAQDAKSGVASTYDLVKQNPLNNIKASESNAYATCVK” the “soluble on expression in E. coli” value was “soluble”.
In the case of “HMARSLYPLGVSRSLPPYRRTFNHQTFIFVKSILRLGVSMEEEEFDIREALANGEHLEKILIMAKYDESVLKKLIELLDDDLWTVVKNAISIIMVIAKTREDLYEPMLKKLFSLLKKSEAIPLTQEIAKAFGQMAKEKPELVKSMIPVLFANYRIGDEKTKINVSYALEEIAKANPMLMASIVRDFMSMLSSKNREDKLTALNFIEAMGENSFKYVNPFLPRIINLLHDGDEIVRASAVEALVHLATLNDKLRKVVIKRLEELNDTSSLVNKTVKEGISRLLLLEGHSSS”, the “soluble on expression in E. coli” value is reported as “soluble”.
With “ADEFGNGDALDLPVGKDAVNSLIRENSHIFSDTQCKVCSAVLISESQKLAHYQSRKHANKVRRYMAINQGEDSVPAKKFKAAPAEISDGEDRSKCCPVCNMTFSSPVVAESHYIGKTHIKNLRLREQ” the “soluble on expression in E. coli” value was “soluble”.
In the case of “MIYFIRKKKWLKQLEKGEAMKYAILIGDGMADYPIEKLGNRTILQAARTPAMDSIAARGRAGLAKTVPDSFPPGSDVANMSILGYDPATYYSGRAPLEAASMGVALAADDVAFRCNLITTEHGMIKDYSAGHISSDEAEILIDTLDYELSTENIRFYPGISYRHLIVAGNNLGAETECTPPHDITGEKIDKYLPRGKDGEFFSELIEASKVVLELHPVNLKRVEEGKNPANSIWVWGQGYAPKFTAFMKLYGKKGAVISAVDLLKGIGIYAGLDVIEVHGATGYLDTNYEGKVRAAIEALKTRDLVFVHVEAPDEAGHEGSIEKKLKAVEDFDSRIVAPILEYAENSDEPFTILVLPDHPTPISVKTHTRDPIPFAIYRTDKPETDNVEAFDEESVKNGSMGLVKASDLIGILIKSLEHHHHHH”, the “soluble on expression in E. coli” value is reported as “soluble”.
With “MAICKVFRNYCKENDIQLHQANFSLSYDTNIPRQTGLSGSSAIVSAALNCLLDFYNVRHLIKVQVRPNIVLSAEKELGIVAGLQDRVAQVYGGLVHMDFSKEHMDKLGHGIYTPMDISLLPPLHLIYAENPSDSGKVHSMVRQRWLDGDEFIISSMKEVGSLAEEGRTALLNKDHSKLVELMNLNFDIRRRMFGDECLGAMNIEMVEVARRVGAASKFTGSGGAVVVFCPEGPSQVKLLEEECRKAGFTLQPVKIAPSCLNDSDIQTL” the “soluble on expression in E. coli” value was “not soluble”.
